Test results reported in paper PMC6101608 (Nucleic Acids Research, 2018).

Columns and labels:
[1] = test system: HpoR (Mycobacterium smegmatis mc2 155); assay: EMSA
[2] = test system: LtmA (Mycobacterium smegmatis mc2 155); assay: EMSA
HpoR = target: T1, HpoR (M. smegmatis mc2 155, UniProt A0R4J9 1-199); assay: SPR
T1 sequence: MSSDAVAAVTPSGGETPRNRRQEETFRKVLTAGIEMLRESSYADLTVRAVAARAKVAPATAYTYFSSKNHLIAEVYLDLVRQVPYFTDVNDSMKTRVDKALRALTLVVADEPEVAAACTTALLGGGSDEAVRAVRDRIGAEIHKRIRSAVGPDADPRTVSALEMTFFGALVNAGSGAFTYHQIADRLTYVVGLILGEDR

For Ms5860p, the Kd [1] was 290 nM and the Kd [2] was 620 nM.

B1: LtmA (natural protein)
chain: MSDPAMESTRRRLSARQADTVERLGRAAVELISREGYAGLTVRRVAAEAGVGSATAYTYFSSKEHLVAEVFWRRLSAAPPAVHESPDPATRVVEVLQHIASLVADEPAFAGAVTTALLGKDPDVDALRQRIGADIRQRLVAALGPDVRIDVIEALELLYTGTMVWAGMGYDSYEQVVRRLEKSARLVLS
B1 showed a Kd (HpoR) of 7500 ± 800 nM.
